The target of one assay is T1, Pol31 (S. cerevisiae, UniProt P46957 1-487).
T1 construct: Pol31, noncatalytic subunit of DNA polymerase delta, S. cerevisiae; also called purified Pol31; source: S. cerevisiae BJ5464, overexpressed, purified on glutathione–Sepharose 4B beads, eluted by PreScission protease cleavage; not shown: GST, N-terminal, cleaved
T1 sequence (looked up): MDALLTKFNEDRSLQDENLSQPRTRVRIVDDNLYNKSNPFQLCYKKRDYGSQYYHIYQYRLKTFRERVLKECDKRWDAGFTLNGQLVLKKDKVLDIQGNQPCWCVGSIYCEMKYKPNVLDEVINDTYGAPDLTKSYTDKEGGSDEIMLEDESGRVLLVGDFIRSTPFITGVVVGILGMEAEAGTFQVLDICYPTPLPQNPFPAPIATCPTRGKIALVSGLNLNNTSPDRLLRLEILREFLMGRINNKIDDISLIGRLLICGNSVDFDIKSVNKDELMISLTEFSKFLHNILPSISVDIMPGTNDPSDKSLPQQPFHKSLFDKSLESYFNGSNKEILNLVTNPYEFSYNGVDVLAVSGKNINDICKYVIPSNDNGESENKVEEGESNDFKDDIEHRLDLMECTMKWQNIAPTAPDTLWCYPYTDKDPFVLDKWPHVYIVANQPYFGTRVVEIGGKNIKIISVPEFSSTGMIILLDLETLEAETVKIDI
Description: pull-down; GST–Pol32 (3 µg) or GST immobilised on glutathione–Sepharose beads, incubated with purified Pol31 (5 µg) and Rev1 (3 µg) together, overnight on ice; 50 mM Tris/HCl pH 7.5, 150 mM NaCl, 1 mM EDTA, 1 mM DTT, 10% glycerol, 0.01% Nonidet P-40; five washes, elution with 20 mM glutathione, SDS-PAGE. The note with it: both partners purified.

The target of the next assay is T2, Rev1 (S. cerevisiae, UniProt P12689 1-985).
T2 construct: Rev1, translesion synthesis DNA polymerase, S. cerevisiae; also called TLS polymerase Rev1; purified Rev1; source: S. cerevisiae BJ5464, overexpressed, purified on glutathione–Sepharose 4B beads, eluted by PreScission protease cleavage; not shown: GST, N-terminal, cleaved
T2 sequence (looked up): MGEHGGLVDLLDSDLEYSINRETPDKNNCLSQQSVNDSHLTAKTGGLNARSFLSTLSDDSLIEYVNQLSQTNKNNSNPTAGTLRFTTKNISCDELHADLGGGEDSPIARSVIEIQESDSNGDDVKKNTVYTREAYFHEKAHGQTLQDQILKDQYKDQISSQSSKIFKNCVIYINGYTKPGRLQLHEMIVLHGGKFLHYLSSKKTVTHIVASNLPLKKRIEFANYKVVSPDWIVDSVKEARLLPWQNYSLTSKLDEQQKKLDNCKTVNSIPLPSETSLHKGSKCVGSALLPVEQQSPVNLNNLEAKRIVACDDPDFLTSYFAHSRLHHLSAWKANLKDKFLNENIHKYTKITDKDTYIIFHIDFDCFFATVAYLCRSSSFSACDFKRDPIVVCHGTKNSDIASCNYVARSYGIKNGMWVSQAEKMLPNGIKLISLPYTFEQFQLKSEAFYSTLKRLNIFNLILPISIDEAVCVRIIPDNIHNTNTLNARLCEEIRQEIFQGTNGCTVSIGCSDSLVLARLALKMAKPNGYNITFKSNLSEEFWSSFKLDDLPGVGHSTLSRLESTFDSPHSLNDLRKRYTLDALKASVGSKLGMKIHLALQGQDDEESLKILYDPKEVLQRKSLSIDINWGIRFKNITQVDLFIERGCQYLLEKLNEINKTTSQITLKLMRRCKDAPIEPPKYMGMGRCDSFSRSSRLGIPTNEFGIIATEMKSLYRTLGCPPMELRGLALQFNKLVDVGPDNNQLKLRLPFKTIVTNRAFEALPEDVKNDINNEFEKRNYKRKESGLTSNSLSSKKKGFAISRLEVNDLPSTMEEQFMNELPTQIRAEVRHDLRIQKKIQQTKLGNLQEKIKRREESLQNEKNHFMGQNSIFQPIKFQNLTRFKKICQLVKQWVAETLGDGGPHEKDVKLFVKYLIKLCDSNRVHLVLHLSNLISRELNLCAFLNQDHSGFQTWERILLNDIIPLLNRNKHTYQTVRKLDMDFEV
The description is as above. The following applies: both partners purified.

B1: GST–Pol32 (natural protein, S. cerevisiae, UniProt P47110 1-350, looked up)
chain: MDQKASYFINEKLFTEVKPVLFTDLIHHLKIGPSMAKKLMFDYYKQTTNAKYNCVVICCYKDQTIKIIHDLSNIPQQDSIIDCFIYAFNPMDSFIPYYDIIDQKDCLTIKNSYELKVSESSKIIERTKTLEEKSKPLVRPTARSKTTPEETTGRKSKSKDMGLRSTALLAKMKKDRDDKETSRQNELRKRKEENLQKINKQNPEREAQMKELNNLFVEDDLDTEEVNGGSKPNSPKETDSNDKDKNNDDLEDLLETTAEDSLMDVPKIQQTKPSETEHSKEPKSEEEPSSFIDEDGYIVTKRPATSTPPRKPSPVVKRALSSSKKQETPSSNKRLKKQGTLESFFKRKAK
notes: Pol32, noncatalytic subunit of DNA polymerase delta, S. cerevisiae; source: S. cerevisiae BJ5464, overexpressed, purified on glutathione–Sepharose 4B beads; not shown: GST, N-terminal, kept
As to B1, the binding result with Pol31 and with Rev1 was “binds” throughout.

These data come from paper PMC3897375, “Def1 Promotes the Degradation of Pol3 for Polymerase Exchange to Occur During DNA-Damage–Induced Mutagenesis in Saccharomyces cerevisiae” (PLoS Biology, 2014).
